± gives the uncertainty stated by the source.
Test: self-splicing fitness, log relative to wild type (ln ratio); higher = more splicing; Tetrahymena group I intron in knt gene, E. coli kanamycin selection, DiMSum; sequences stand for … in CUCUCU…GGAGGGAAAAGUUAUCAGGCAUGCACCUGGUAGCUAGUCUUUAAACCAAUAGAUUGCAUCGGUUUAAAAGGCAAGACCGUCAAAUUGCGGGAAAGGGGUCAACAGCCGUUCAGUACCAAGUCUCAGGGGAAACUUUGAGAUGGCCUUGCAAAGGGUAUGGUAAUAAGCUGACGGACAUGGUCCUAACCACGCAGCCAAGUCCUAAGUCAACAGAUCUUCUGUUGAUAUGGAUGCAGUUCACAGACUAAAUGUCGGUCGGGGAAGAUGUAUUCUUCUCAUAAGAUAUAGUCGGACCUCUCCUUAAUGGGAGCUAGCGGAUGAAGUGAUGCAACACUGGAGCCGCUGGGAACUAAUUUGUAUGCGAAAGUAUAUUGAUUAGUUUUGGAGUACUCGUGGUCG
Method in brief: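 DiMSum derived fitness as the error-weighted combination of fold changes across replicates, kanamycin versus no kanamycin, normalised to wild type. E. coli BL21(DE3) held the library, which randomised all eight P1ex-region intron nucleotides within the knt kanamycin-resistance gene on pET-22b(+). Six replicate transformations grew overnight at 37°C or 30°C on LB agar with or without 25 μg/mL kanamycin, also containing 100 μg/mL carbenicillin, 50 μM IPTG and 0.2% rhamnose, and pooled colonies were amplicon-sequenced on an Illumina HiSeq 2500.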

| Sequence | self-splicing fitness (ln) (30 °C) | self-splicing fitness (ln) (37 °C) |
| --- | --- | --- |
| GACUAGCAAUAUUACGCUAG | -2.44 ± 0.31 | -1.16 ± 0.26 |
| GACUAGCAAUAUUACGCUAU |  | -3.22 ± 0.43 |
| GACUAGCAAUAUUACGGAAC | -1.61 ± 0.12 | -1.15 ± 0.17 |
| GACUAGCAAUAUUACGGAAU | -2.12 ± 0.12 | -1.91 ± 0.14 |
| GACUAGCAAUAUUACGGACC | -1.77 ± 0.38 | -0.714 ± 0.39 |
| GACUAGCAAUAUUACGGCUG | -1.04 ± 0.079 | -0.193 ± 0.087 |
| GACUAGCAAUAUUACGGGAU | -1.59 ± 0.14 | -0.788 ± 0.14 |
| GACUAGCAAUAUUACGGGCC |  | -2.46 ± 0.41 |
| GACUAGCAAUAUUACGUAUA | -1.01 ± 0.11 | -0.555 ± 0.13 |
| GACUAGCAAUAUUACGUCAA | -2.55 ± 0.16 | -2 ± 0.12 |
| GACUAGCAAUAUUACGUCCU | -1.15 ± 0.2 | 0.446 ± 0.17 |
| GACUAGCAAUAUUACGUGAU | -1.83 ± 0.078 | -0.383 ± 0.087 |
| GACUAGCAAUAUUACGUGGU | -3.39 ± 0.13 | -2.73 ± 0.15 |
| GACUAGCAAUAUUACGUUCU | -3.33 ± 0.26 | -0.968 ± 0.14 |
| GAGAAGCAAUAUUACGAAGC | -3.21 ± 0.28 | -1.65 ± 0.29 |
| GAGAAGCAAUAUUACGACAG | -2.31 ± 0.19 | -3.09 ± 0.4 |
| GAGAAGCAAUAUUACGACCA | -1.12 ± 0.18 | 0.744 ± 0.3 |
| GAGAAGCAAUAUUACGACUG | -0.535 ± 0.062 | -0.0404 ± 0.073 |
| GAGAAGCAAUAUUACGAGAU | -4.47 ± 0.42 | -2.1 ± 0.22 |
| GAGAAGCAAUAUUACGAGUA | -2.04 ± 0.2 | -1.73 ± 0.12 |
| GAGAAGCAAUAUUACGAUAA | -2.02 ± 0.14 | -0.42 ± 0.15 |
| GAGAAGCAAUAUUACGCAGC | -3.2 ± 0.38 | -1.48 ± 0.26 |
| GAGAAGCAAUAUUACGCAUU | -2.53 ± 0.12 | -2.08 ± 0.17 |
| GAGAAGCAAUAUUACGCCCU | -0.493 ± 0.16 | 0.146 ± 0.18 |
| GAGAAGCAAUAUUACGCCGG | -2.05 ± 0.44 | 0.0344 ± 0.4 |

| Sequence | self-splicing fitness (ln) (30 °C) | self-splicing fitness (ln) (37 °C) |
| --- | --- | --- |
| GAGAAGCAAUAUUACGCGGG | -2.86 ± 0.14 | -1.88 ± 0.14 |
| GAGAAGCAAUAUUACGCUGC | -2.78 ± 0.46 | -2.26 ± 0.49 |
| GAGAAGCAAUAUUACGGAAU | -3.69 ± 0.25 | -1.55 ± 0.2 |
| GAGAAGCAAUAUUACGGAGG |  | -2.47 ± 0.21 |
| GAGAAGCAAUAUUACGGCGG | -1.9 ± 0.12 | -1.25 ± 0.15 |
| GAGAAGCAAUAUUACGGUAA | -1.64 ± 0.2 | -1.57 ± 0.18 |
| GAGAAGCAAUAUUACGGUGU | -3.57 ± 0.15 | -1.58 ± 0.099 |
| GAGAAGCAAUAUUACGUACC | -1.18 ± 0.23 | -0.414 ± 0.35 |
| GAGAAGCAAUAUUACGUGAG | -1.32 ± 0.058 | -1.57 ± 0.1 |
| GAGAAGCAAUAUUACGUGCC | -0.556 ± 0.11 | -0.064 ± 0.11 |
| GAGAAGCAAUAUUACGUGGA | -2.64 ± 0.17 | -1.81 ± 0.14 |
| GAGAAGCAAUAUUACGUGUA | -2.8 ± 0.15 | -1.41 ± 0.13 |
| GAGAAGCAAUAUUACGUUCG | -1.38 ± 0.072 | -0.765 ± 0.095 |
| GAGAAGCAAUAUUACGUUUU | -2.39 ± 0.14 | -1.96 ± 0.17 |
| GAGCAGCAAUAUUACGAAGG |  | -2.79 ± 0.34 |
| GAGCAGCAAUAUUACGACAC | -0.81 ± 0.23 | -0.627 ± 0.21 |
| GAGCAGCAAUAUUACGACUG | -1.75 ± 0.11 | -2.01 ± 0.18 |
| GAGCAGCAAUAUUACGAGAU | -3.68 ± 0.18 | -2.64 ± 0.17 |
| GAGCAGCAAUAUUACGAUAG | -3.7 ± 0.29 | -3.14 ± 0.24 |
| GAGCAGCAAUAUUACGAUCG | -2.76 ± 0.17 | -2.48 ± 0.26 |
| GAGCAGCAAUAUUACGAUUC | -0.868 ± 0.093 | -0.29 ± 0.14 |
| GAGCAGCAAUAUUACGCAGA | -3.22 ± 0.21 | -0.954 ± 0.1 |
| GAGCAGCAAUAUUACGCAGG | -2.08 ± 0.13 | -2.55 ± 0.19 |
| GAGCAGCAAUAUUACGCGCU | -3.19 ± 0.38 | -1.9 ± 0.36 |

Source: the supplement of paper PMC7877785
